# Experimental data as given in the DeepSol protein solubility set.
# Test: soluble on expression in E. coli; label from the status in PepcDB or PDB records
row,Sequence,soluble on expression in E. coli
1,LDPPSGELSLPEDIPGEAKVYFDDEGVPYIHASSDEAAFYAAGWVHASLRLFQMDVFRRVGLGELSGLVGEAGLEADRRAAILGLRSVVDAEWRHIQNNPEFGEIVRIVEAYTAGVNGYISYALKTGRLPVEYRVLGVKPSPWLPQDTLAMAKVLALMLSYSEDDLILDRLVRKWGPEVIADFDIVGRSLNMPHASCDMAVDWGDVTGLEGPYNPLLSVEERREPLHESEPLDLGYNPDPEIIAAVVDRVLYMLSWNAASNNWVVSGSLTVSGNPLLANDPHLSLTAPGIWLPIVISSPSYSLAGVTIPGVPLVVIGRNSHVAWGFTNVGSDFTDFYRYQWVDENRYFYKGRIFGVEKSSIEAYVWDPLARSYRVQEISVARTIHGPVIEWQGEKFAVSYTSARPTFEMIFLWLLNKASSVRDALSAQRYFYGPPQNMVVADSAGNIAYSPVGAYPERATLPTIETGYGPIVNTGFLPFDGSAGEGEWRGFKPYSSLPVLFNPPQGFVATANSKPFEDGCWDGLGWDYADRFRTERIYTLLQERSAEEPLDAGDMRDIQLDVEDLGLKTLVSLMVRVASGDGGHVLERYMDMLAEWAENPQM,not soluble
2,LGFLPKEKKDKIKRFIKYEDALMSLTAEILIRAVVCSKLGIKNESVKFNRTTYGKPYLEGYDDFHFNLSHSGSWVVCAVSSKPVGIDIEKIREVDLDIAKRFFSKEEASDLFAKEDNEKTEYFFELWTLKESYIKADGRGLSLPLNSFFFRIENDNVIFVSESEKKKFFFKRYDIDKGYKLAVCSMESHFPEDVEIKSFEEVCKFLCER,not soluble
3,LGIDLLSYYIEAGSCMIYYNEKPYIDEFQQYVSDNDISTTDVEQYDEWMSEHDVAFYSVQEMGKVIYNKSNVDKLISPAKNMYDYRFTGSYELPVQFSDIEAEVFIYTGFTEKYY,not soluble
4,LITPQYKSEAKLYILSKETTLTSLADLQIGSQLTQDYKVLVSSRPVMEGVINHLKLDYSYKELAGKLTVENPQNTRILSLTVRDENPYMAKQIVDDIANTASDYIGEIMEMVPPKMIEDGVVASEPYSPSIKRN,not soluble
5,LKPDPWADIETRFPVGSRHHARVRNFTNFGVFVEIEEGVDGLIHISDLSWTKKIKHPSEFTEVGADIEVQVIEIDKENRRLSLGHKQLEENPWDVFETVFTVGSIHEGTVIEVMDKGAVVSLPYGVEGFATPKHMVKEDGSQAVLEEKLPFKVIEFNKDAKRIIVSHSRVFEDEQKMAQREANAERKAEAKAAQKEAAAEAANPAQAVEKATLGDLGELAALKEKLSEN,not soluble
6,LKRLFFTVSLAVVLSACQALPLNQSQAIVHDEYVSSGDLLPIEAITTIDGEELDLQQLGKRKLVILFATWCHDSNRLLKALNSSPLLEMEGIEIVAIAREEDLETVTAWRDKRGIKVALAVDNDRSIYRRFASGGIPRLITIGENNKIIKMNLAEGEQQLAKIV,not soluble
7,LLGDEAIALGAIHAGISGVYAYPGTPSTEITEFIQNNRLAKERKLHSTWCTNEKTAMEAALGMSYAGKRALVCMKHVGMNVAADAFVNSAITGVNGGLVVLAADDPSMHSSQNEQDSRFYGKFAMIPMLEPSSQQEAYDMMDYAYTLSEKLKLPVLMRVVTRLAHSRAGVEVADIREENQLNPDHERAHWVLLPGNARKQYLDLVKKQEKLEEASSKSPYNYLEGLNPEYDYEFGVIACGIGYNYVKEADTDSCHIPVLKVSQYPLPAEEIRTMADRCGYVLVVEDGQPFVEEQVKAILSSDYEVKGRLTETLPRTGELTPDNVGEAIGWGIKRPFGKSQVVMPRPPALCQGCGHRDVYDALNKVAAEYPDARIFGDIGCYTLGALPPFRAIDSCVDMGASITMAKGASDAGVFPAIAVIGDSTFTHSGMTGLLDAVNDRANITVVISDNLTTAMTGGQDSAGTNKFEAICLGLGVEPEHVRVVVPLPKNMEEITRTIREEIEY,not soluble
8,LLIGFWDCVTCHGSPVDICTAKPRDIPMNPMCIYRSPEKKATEDEGSEQKIPEATNRRVWELSKANSRFATTFYQHLADSKNDNDNIFLSPLSISTAFAMTKLGACNDTLQQLMEVFKFDTISEKTSDQIHFFFAKLNCRLYRKANKASKLVSANRLFGDKSLTFNETYQDISELVYGAKLQPLDFKENAEQSRAAINKWVSNKTEGRITDVIPSEAINELTVLVLVNTIYFKGLWKSKFSPENTRKELFYKADGESCSASMMYQEGKFRYRRVAEGTQVLELPFKGDDITMVLILPKPEKSLAKVEKELTPEVLQEWLDELEEMMLVVHMPRFRIEDGFSLKEQLQDMGLVDLFSPAASALPGIVAEGRDDLYVSDAFHKAFLEVNEEGSEAAASTAVVIAGRSLNPNRVTFKANRPFLVFIREVPLNTIIFMGRVANPCVK,soluble
9,LNHETITKRTLLSSLMETNSLNYPNQVKLSERLAELYGASFGIGVSKKGNQHWFNISMNIVNDHYLQDSQVLAEAVDFLKEIIFAPNIQAGQFEAETFQREKENLKAYLESIVED,not soluble
10,LNKELQHERLAYITDSELIIFADFLPTEFVDEYLIDQSEESVAHIQQALSYEDNKVGRYAEPHFLVANPKNSVGGIKTELLKRGQSPVRLIIVRDVGGVIGTIEPQILLLHENHTKLTDLTVVTPILEDIQTIQSVSKQVSIDGGAHWFPIMAGGKIMGVLSMATIAITLRELSLQAVVAENVRSEEDLFTPLTVATRLRAL,not soluble
11,LPNITILATGGTIAGGGDSATKSNYTVGKVGVENLVNAVPQLKDIANVKGEQVVNIGSQDMNDNVWLTLAKKINTDCDKTDGFVITHGTETMEETAYFLDLTVKCDKPVVMVGAMRPSTSMSADGPFNLYNAVVTAADKASANRGVLVVMNDTVLDGRDVTKTNTTDVATFKSVNYGPLGYIHNGKIDYQRTPARKHTSDTPFDVSKLNELPKVGIVYNYANASDLPAKALVDAGYDGIVSAGVGNGNLYKSVFDTLATAAKTGTAVVRSSRVPTGATTQDAEVDDAKYGFVASGTLNPQKARVLLQLALTQTKDPQQIQQIFNQY,soluble
12,LPTSNPAQELEARQLERTTRDDLINGNSASCADVIFIYARGSTEAGNLGTLGPSIASNLESAFGKDGVWIQGVGGAYRATLGDNALPRGTSSAAIREMLGLFQQANTKCPDATLIAGGYSQGAALAAASIEDLDSAIRDKIAGTVLFGYTKNLQNRGRIPNYPADRTKVFCNTGDLVCTGSLIVAAPHLAYGPDARGPAPEFLIEKVRAVRGSA,soluble
13,LQELSITNFAIIEHLDIAFEAGMTVLTGETGAGKSIIIDAVGLLAGGRGSAEFIRTGADKAVLQGMFILPADGVTAQLLDEAGIEHADNTVILQREITKSGRNTCRINGMLVNTTTLKQIGETIVDIHGQNEHQELMQPEKHLGLLDEFATA,not soluble
14,LQYQPNKLARALTSSGFDAIMVISTRSTKTTAGNPFFSEVLHAITAKAEEEGFDVILQTSHNPAEDLQKCESKIKQKMIKGIIMLSSPADESFFAQLDKYDIPVVVIGKVEGQYAHVYSVDTDNFGDSIALTDALIESGHQNIACLHAPLDVHVSVDRVNGYKQSLAAHNIAVRDEWIVDGGYTHETALKAARQLLSQSPLPEAVFATDSLKLMSIYRAAAEKNIAIPQQLAVVGYSNETLSFILTPAPGGIDVPTQELGQQSCELLFRLISGKPSPQNITVATHMTLK,soluble
15,LRSSSQNSSDKPVAHVVANHQVEEQLEWLSQRANALLANGMDLKDNQLVVPADGLYLVYSQVLFKGQGCPDYVLLTHTVSRFAISYQEKVNLLSAVKSPCPKDTPEGAELKPWYEPIYLGGVFQLEKGDQLSAEVNLPKYLDFAESGQVYFGVIAL,soluble
16,LSFQDELMRALNPDVLVVQKRPEGVLPLDELVRRIEGAEPGRKVAFVWVEMDSDKAGRIFYTPPPGQRRGESRWIDPYTGAFVGEPRGEGFFNLMMQLHRFLAMGEYGKQV,not soluble
17,LSGLTRPQEGTDEVTDAHASACLAALERGFDAEWGGFGGEPKFPRPAVLSFLFSHAVATGNRHALDMALLTLRKMAAGGIHDHLGVAGLGGGGFARYSTDRFWHVPHFEKMLYDNAQLAASYLEAYQASGDELFANTARDIFHYVLCDMTSPEGAFWSAEDADSLDPYGSGEKREGAFYLWTEQEITGLLDPEEATLFIATYGIRSDGNAPFDPHGEFTGKNILIRTMSDNELAGTFEIPIETVGKRLNSARKKLFEARKKRPRPGLDDKILTSWNGLMLSALAKGSLVLGDTTLLEAAERAARFILDTLCDSKSGKLLRRYRDGQAAIEGKAADYACLILGLLDLYSASFDSDWLRAAIKLAEAQIERFFDQEAGVFYSTAVEDHSVPLR,not soluble
18,LTAEEIIQYISDAKKSTPIKVYLNGNFEGITYPESFKVFGSEQSKVIFCEADDWKPFYEAYGSQFEDIEIEMDRRNSAIPLKDLTNTN,soluble
19,LTLGSISLTAFIMGVVFWGGFNTALEATNTEEFCIGCHSMESKPYQELQKTVHWSNHSGVRATCPDCHVPHSWGRKIARKMEASSDVWGWVFNTVNTSEKFEDKRLEMASREWARFERDDSLACKNCHNYDSMKWDTMSKLAQKQMKRAAEKDQSCVDCHKGIAHILPDMGTARAPQLIAEVGTGPSKFTNEQYYFSALTKPLFFSAKGDVEAGTLNVATKVKILESKENRVKVSISGWRKQIGAGRVIYYDFGINMLTAQLSKEAAKTEGVINGFEEKEDEMTGLKWQRVETTLWTDAEYLITEQQPLWDYARTTFRSSCSVCHTQPDEAHFDA,not soluble
20,MAADPASAPVLLHPRRAMVLAAGLGLRMRPLTETMPKPLVAIHDKPLIDWALDHLATAGVEEAVVNLHHLPEMLEAHLQGRATPRIHFSDETGQRLETGGGVRKALPHLGDDPFYVLNSDVLWLNGTIPALDRLAAAWDPETMDALLLLHPLAAAHGYEGLGDFDLDPLGRPTRRAEMHMAPFIFTGVQILHPRLFDDAPEGPFSLNVLYDRALSEDRLAAIVHDGEWYHVGTPQALVHTETILGQHSSMSDQLEHHHHHH,not soluble
21,MAADYDKLFRPHEGMEAPDDMAAQPFFDPSASFPPAPASANLPKPNGQTPPPTSDDLSERFVSAPPPPPPPPPPPPPTPMPIAAGEPPSPEPAASKPPTPPMPIAGPEPAPPKPPTPPMPIAGPEPAPPKPPTPPMPIAGPAPTPTESQLAPPRPPTPQTPTGAPQQPESPAPHVPSHGPHQPRRTAPAPPWAKMPIGEPPPAPSRPSASPAEPPTRPAPQHSRRARRGHRYRTDTERNVGKVATGPSIQARLRAEEASGAQLAPGTEPSPAPLGQPRSYLAPPTRPAPTEPPPSPSPQRNSGRRAERRVHPDLAAQHAAAQPDSITAATTGGRRRKRAAPDLDATQKSLRPAAKGPKVKKVKPQKPKATKPPKVVSQRGWRHWVHALTRINLGLSPDEKYELDLHARVRRNPRGSYQIAVVGLKGGAGKTTLTAALGSTLAQVRADRILALDADPGAGNLADRVGRQSGATIADVLAEKELSHYNDIRAHTSVNAVNLEVLPAPEYSSAQRALSDADWHFIADPASRFYNLVLADCGAGFFDPLTRGVLSTVSGVVVVASVSIDGAQQASVALDWLRNNGYQDLASRACVVINHIMPGEPNVAVKDLVRHFEQQVQPGRVVVMPWDRHIAAGTEISLDLLDPIYKRKVLELAAALSDDFERAGRR,soluble
22,MAAESQLKRVIETLRRLGIEEVLKLERRDPQYRAVCNVVKRHGETVGSRLAMLNALISYRLTGKGEEHWEYFGKYFSQLEVIDLCRDFLKYIETSPFLKIGVEARKKRALKACDYVPNLEDLGLTLRQLSHIVGARREQKTLVFTIKILNYAYMCSRGVNRVLPFDIPIPVDYRVARLTWCAGLIDFPPEEALRRYEAVQKIWDAVARETGIPPLHLDTLLWLAGRAVLYGENLHGVPKEVIALFQWRGGCRPPSE,soluble
